The term Kd denotes a measure of binding affinity in units of concentration.

The target in test [1] is BG505 SOSIP.664 trimer, wild type, produced in 293S cells (HIV-1 (clade A strain BG505)) (UniProt Q2N0S6). Briefly: ITC.
Test [2] has as its target BG505 SOSIP.664-N137A trimer, produced in 293S cells (HIV-1 (clade A strain BG505)). Briefly: ITC. (In general: ITC needs no label: the signal is the heat of the interaction.)

Take “PGT124 (mature bnAb of the PGT121 family) (Fab)”: in test [1], the Kd is 0.032 µM and the fold higher affinity against 32H+3L on the same trimer came out at 13 fold.

B1: PGT124 (mature bnAb of the PGT121 family) (Fab, V domains shown)
VH: QVQLQESGPGLVRPSETLSVTCIVSGGSISNYYWTWIRQSPGKGLEWIGYISDRETTTYNPSLNSRAVISRDTSKNQLSLQLRSVTTADTAIYFCATARRGQRIYGVVSFGEFFYYYYMDVWGKGTAVTVSS
VL: SYVSPLSVALGETARISCGRQALGSRAVQWYQHKPGQAPILLIYNNQDRPSGIPERFSGTPDINFGTTATLTISGVEVGDEADYYCHMWDSRSGFSWSFGGATRLTVL
Take B1: the fold enhanced affinity against its binding to the wild-type trimer in test [2] was determined as 5 fold.

B2: 32H+3L Fab (inferred intermediate of the PGT124 branch) (Fab, V domains shown)
VH: QVQLQESGPGLVKPSETLSVTCIVSGGSISNYYWTWIRQSPGKGLEWIGYISDRETTTYNPSLKSRVVISRDTSKNQLSLKLNSVTAADTAIYYCATARRGQRIYGVVSFGEFFYYYYMDVWGKGTAVTVSS
VL: SYVLTQPSQLSVAPGETARISCGGRSLGSRAVQWYQQKPGQAPVLVIYNNQDRPSGIPERFSGSPDSNFGTTATLTISRVEAGDEADYYCHMWDSRSAINWVFGGGTKLTVL
In the case of B2, the fold enhanced affinity against its binding to the wild-type trimer in test [2] came out at 16 fold.

B3: 9H+3L Fab (inferred intermediate of the PGT122 branch) (Fab, V domains shown)
VH: QVQLQESGPGLVKPSETLSLTCSVSGASISDHYWSWIRQSPGKGLEWIGYVYDSGDTNYNPSLKSRVNLSLDTSKNQVSLSLTAVTAADSAIYYCARTQHGRRIYGIVAFREWFTYFYMDVWGQGTPVTVSS
VL: SYVLTQPSQLSVAPGETARISCGGRSLGSRAVQWYQQKPGQAPVLVIYNNQDRPSGIPERFSGSPDSNFGTTATLTISRVEAGDEADYYCHMWDSRSAINWVFGGGTKLTVL
B3: the fold enhanced affinity against its binding to the wild-type trimer in test [2] was found to be 11 fold.

B4: 3H+3L Fab (inferred early precursor of the PGT121 family) (Fab, V domains shown)
VH: QVQLQESGPGLVKPSETLSLTCTVSGGSISNYYWSWIRQSPGKGLEWIGYISDSESTNYNPSLKSRVIISVDTSKNQLSLKLNSVTAADSAIYYCARAQQGKRIYGMVSFGEFFYYYYMDVWGKGTTVTVSS
VL: SYVLTQPSQLSVAPGETARISCGGRSLGSRAVQWYQQKPGQAPVLVIYNNQDRPSGIPERFSGSPDSNFGTTATLTISRVEAGDEADYYCHMWDSRSAINWVFGGGTKLTVL
B4: in test [2], the Kd worked out at 0.035 µM and the fold enhanced affinity against its binding to the wild-type trimer is 15 fold.

These data come from PMC4692269.
